Ends that are not written are not given here.

Experiment [1] addresses T1, human serum albumin (human, UniProt P02768 25-609).
T1 construct: also called HSA
Kind of experiment: dot-blot, 10.0 nmoles peptide per filter on nitrocellulose, 0.3 µM 125I-HSA, 2 h. On the procedure:
(§1) Peptides were immobilized on nitrocellulose membranes and non-specific binding was blocked with bovine γ-globulin (2 mg/ml in PBS) for 1 h at 22° C. Membranes were washed 2× with PBS and incubated with ¹²⁵I-labeled HSA ([…]) for 2 h at 22° C. Membranes were then washed 4× with PBS containing 0.05% Tween-20 (PBST) and autoradiography was performed. In some experiments, the membranes were directly counted to determine the membrane-associated radioactivity.
(§2) Peptides were immobilized on nitrocellulose membranes and then incubated with 1 ml of 0.3 μM ¹²⁵I-HSA in PBS for 2 h. Other details were described in Example 1. Non-specific binding was determined by incubating membranes with ¹²⁵I-HSA in the absence of any peptides. Results are shown mean±S.E. for three separate experiments made in triplicate.

Experiment [2] has as its target T1, human serum albumin. Kind of experiment: dot-blot, 2.5 nmoles peptide per filter on nitrocellulose, 0.3 µM 125I-HSA, 2 h. The procedure: as §1, §2
Experiment [3] deals with T1, human serum albumin. The experiment in a line: dot-blot, 1.0 nmoles peptide per filter on nitrocellulose, 0.3 µM 125I-HSA, 2 h. On the procedure:
as §1, §2

Experiment [4] deals with T2, rat serum albumin (rat, UniProt P02770 25-608).
T2 construct: also called RSA
T2 sequence (P02770 25-608 limits assumed): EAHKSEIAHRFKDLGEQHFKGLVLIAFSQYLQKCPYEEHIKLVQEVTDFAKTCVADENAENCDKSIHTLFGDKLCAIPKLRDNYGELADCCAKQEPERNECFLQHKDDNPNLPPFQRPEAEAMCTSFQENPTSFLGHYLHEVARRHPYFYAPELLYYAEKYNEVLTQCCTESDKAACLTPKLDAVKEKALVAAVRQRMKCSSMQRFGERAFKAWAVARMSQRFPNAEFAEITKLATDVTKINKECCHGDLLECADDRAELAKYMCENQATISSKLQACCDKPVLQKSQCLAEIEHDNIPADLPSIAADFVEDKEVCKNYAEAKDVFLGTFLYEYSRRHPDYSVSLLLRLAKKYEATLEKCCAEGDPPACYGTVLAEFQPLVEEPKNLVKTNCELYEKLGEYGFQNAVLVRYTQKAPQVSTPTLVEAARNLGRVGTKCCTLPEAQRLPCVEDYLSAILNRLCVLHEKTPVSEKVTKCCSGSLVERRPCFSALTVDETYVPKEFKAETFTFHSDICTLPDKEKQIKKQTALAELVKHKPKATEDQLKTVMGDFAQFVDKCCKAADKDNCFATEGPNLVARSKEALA
Kind of experiment: binding of albumin to the immobilised peptide; details not given.

For experiment [5], the target named is T1, human serum albumin. The experiment in a line: dot-blot, 5.0 nmoles peptide per filter on nitrocellulose, 0.3 µM 125I-HSA, 2 h. On the procedure: as §1, §2
The target of experiment [6] is T1, human serum albumin. The experiment in a line: HSA-Sepharose affinity chromatography of human lung extract, elution at pH 4.0, SDS-PAGE, MALDI-MS. On the procedure: Protein purification and MALDI-MS: Human lung tissue (180 g) was washed, minced, and homogenized with 20 volumes of buffer A (20 mM Hepes/Tris/0.15 M NaCl/0.1 mM phenylmethylsufonylfluoride [PMSF]/30 pM benzamidine [BM], pH 7.4). The homogenate was centrifuged at 1000×g for 10 min and the supernatant was centrifuged at 100,000×g for 60 min. The pellet obtained was solubilized using 2.5% sodium cholate and 4 M urea (Tiruppathi et al., Proc. Natl. Acad Sci. USA, 93:250-254 (1996)). The solubilized extract was concentrated by ethanol precipitation and re-extracted with Triton X- 100 (Tiruppathi et al., Proc. Natl. Acad Sci. USA, 93:250-254 (1996)). The Triton X-100 concentration in the extract was adjusted to 0.2% and applied on HSAsepharose column (1×10 cm) pre-equilibrated with buffer-B (10 MM Tris-HCl, 0.5 MM EDTA, pH 7.4 containing 0.1 mM PMSF, 30 [M BM, and 0.2% Triton X-100). The column was washed and bound proteins were eluted with 20 ml of 0.1 M citrate buffer pH 4.0 containing 0.2% Triton X- 100. The proteins eluted were separated on SDS-PAGE, stained with Coomassie Brilliant Blue R-250 (CBBR-250) (FIG. 1A). The protein bands excised were digested with trypsin and peptides were analyzed using MALDI-MS at Yale University Biotechnology Resource Laboratory (New Haven, Conn.). The peptide masses were compared with known sequence using Profound search analysis on OWL database. […]

The target in experiment [7] is T1, human serum albumin. Kind of experiment: 125I-HSA dot-blot on peptide immobilised on nitrocellulose. The procedure: as §1, §2

B1: MPO-WT-peptide (MPO-HC sequence 425-454) (peptide)
peptide: not shown
modifications: C-terminal amide
notes: Immobilised on nitrocellulose in the dot-blot; also called ADS
In the case of B1, the “125I-HSA bound (pmoles/filter)” value was found to be 6.55 pmoles/filter in experiment [1], 1.45 pmoles/filter in experiment [2], 0.31 pmoles/filter in experiment [3] and 2.93 pmoles/filter in experiment [5]. In addition, the binding result in experiment [4] is “binds”.

B2: MPO-HC (60 kDa protein isolated from human lung tissue) (enzyme, UniProt P05164 279-745, looked up)
chain: VNCETSCVQQPPCFPLKIPPNDPRIKNQADCIPFFRSCPACPGSNITIRNQINALTSFVDASMVYGSEEPLARNLRNMSNQLGLLAVNQRFQDNGRALLPFDNLHDDPCLLTNRSARIPCFLAGDTRSSEMPELTSMHTLLLREHNRLATELKSLNPRWDGERLYQEARKIVGAMVQIITYRDYLPLVLGPTAMRKYLPTYRSYNDSVDPRIANVFTNAFRYGHTLIQPFMFRLDNRYQPMEPNPRVPLSRVFFASWRVVLEGGIDPILRGLMATPAKLNRQNQIAVDEIRERLFEQVMRIGLDLPALNMQRSRDHGLPGYNAWRRFCGLPQPETVGQLGTVLRNLKLARKLMEQYGTPNNIDIWMGGVSEPLKRKGRVGPLLACIIGTQFRKLRDGDRFWWENEGVFSMQQRQALAQISLPRIICDNTGITTVSKNNIFMSNSYPRDFVNCSTLPALNLASWREAS
notes: domain: heavy chain (HC); also called MPO heavy chain
For B2, in experiment [6], the binding result is “binds”.

B3: EARKIV peptide (peptide)
peptide: EARKIV-NH2
notes: Synthetic hexapeptide from MPO-HC; also called EARKIV motif
As to B3, in experiment [7], the binding result is “no binding”. The “125I-HSA bound (pmoles/filter)” value in experiment [1] was 0.11 pmoles/filter; in experiment [2] it was 0.06 pmoles/filter; in experiment [3] it was 0.05 pmoles/filter; in experiment [5], 0.08 pmoles/filter.

B4: MPO-MT-peptide (peptide)
peptide: GLATELGSLNPGWDGEGLYQEAGGIVGAMV-NH2
Turning to B4, in experiment [7], the binding result is recorded as “no binding”. The “125I-HSA bound (pmoles/filter)” value turned out to be 0.19 pmoles/filter in experiment [1], 0.11 pmoles/filter in experiment [2], 0.01 pmoles/filter in experiment [3] and 0.14 pmoles/filter in experiment [5].

Values taken from US20070077239A1 (BOARD OF TRUSTEES OF THE UNIVERSITY OF ILLINOIS, published 2007).
